Experimental findings from article PMC11046469, “Leveraging a Phage-Encoded Noncanonical Amino Acid: A Novel Pathway to Potent and Selective Epigenetic Reader Protein Inhibitors” (ACS Central Science, 2024) are described below.

The target of test [1] is T1, ENL YEATS domain (His-ENL) (Homo sapiens, UniProt Q03111).
T1 construct: (aa 1−148) was cloned in pET19b; made in house; host or cells: E. coli BL21(DE3pLysS)
T1 sequence (Q03111 1-148): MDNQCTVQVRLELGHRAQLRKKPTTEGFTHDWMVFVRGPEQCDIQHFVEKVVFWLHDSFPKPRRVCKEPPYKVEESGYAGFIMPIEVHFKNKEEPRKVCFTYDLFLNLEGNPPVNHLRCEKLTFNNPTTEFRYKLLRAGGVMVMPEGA
In words: Biolayer interferometry (BLI) binding to ENL YEATS. The following applies: ratio KD,AF9 / KD,ENL. An excerpt:
To test the inhibition potency of the two selected peptides for the ENL YEATS domain, ENL-S1 and ENL-S2 were chemically synthesized through solid-phase peptide synthesis (SPPS) and evaluated by an AlphaScreen assay. In this assay, a biotinylated H3K27cr peptide and a 6xHis-tagged ENL YEATS domain (His-ENL YEATS) were immobilized on PerkinElmer streptavidin donor and nickel-chelating (Ni-NTA) acceptor beads, respectively. The use of a His-ENL YEATS instead of the original AviSUMO-ENL YEATS construct in the assay prevents potential false positive results derived from ligands which bind to the SUMO protein but not to the ENL YEATS domain. […] We then assessed the binding affinity of two ligands for the ENL YEATS domain using biolayer interferometry (BLI). Briefly, His-ENL was immobilized onto Ni-NTA functionalized biosensors to measure the binding kinetics of target peptides at different concentrations. […] As a small peptide directly selected from a phage display library, this level of high potency was unexpected. […] However, shorter-than-10-mer linear peptides with nanomolar binding potency have rarely been directly selected from phage display libraries. One example was S2P03, a 7-mer peptide that has a KD value as 49 ± 9 nM to bind to SIRT2.[10] This peptide contained BuK and was identified also from a BuK-containing phage display library using the active site-directed ligand selection technique. Taken together, the two examples confirmed that utilizing phage display libraries incorporated with a ncAA serving as a ligand for a protein target for active site-directed ligand selection is a successful method for identifying ultrahigh potency ligands for epigenetic proteins including both enzymes and readers. For ENL-S1 and ENL-S2, their determined kon and koff values were 6.23 ± 0.07 × 10^4 M^–1 s^–1, […] and […], 5.54 ± 0.02 × 10^–3 s^–1, respectively. Compared to ENL-S2, ENL-S1 has faster binding to the ENL YEATS domain and slower release from it, indicating its potential long-term action on the ENL YEATS inhibition. […]
Biolayer Interferometry to Validate ENL Ligands:
His-ENL, His-AF9 (aa 1-149, EpiCypher), His-GAS41 (aa 15-160, EpiCypher), and YEATS2-His (aa 200-345, EpiCypher) were reconstituted in water and diluted into assay buffer (20mM Tris, 300 mM NaCl, pH 7.9) for immobilization onto Octet Ni-NTA biosensors (Sartorius). Lyophilized peptides were dissolved in DMF and diluted to designated concentrations in assay buffer. Biolayer interferometry assays were performed in 96 well plates (GreinerBio-One, polypropylene, flat-bottom) using an Octet Red96 System (Sartorius). Wells were filled with 200 μL of assay buffer, blocking buffer (assay buffer + 0.1% BSA), protein solution, peptide solution, regeneration solution, and reload solution. For immobilization, His-tagged proteins were immobilized onto Ni-NTA sensors at 20 for 600 s. Sensors were then dipped into blocking buffer for 180 s, assay […] buffer for 300 s, peptide solution for 300 s, and back to assay buffer for 300 s. If multiple samples were tested, Ni-NTA sensors can be reconditioned in regeneration (10 mM glycine, pH 1.7) solution followed by reload solution (10 mM NiCl2) for 30 and 60 s, respectively. Measurements were carried out at 30 °C. Data were analyzed within the ForteBio Data Analysis software. Data were processed by double subtracting ligand only and protein only reference wells and aligning the data to the beginning of the association. Then, global kinetic fit was performed for all sensogram curves with a 1:1 model. Steady state KD values were reported.
AlphaScreen Assay with Biotinylated-ENL-S1:
The AlphaScreen assay was carried out in 384-well plates. Manual assay setup was performed in a 40 uL reaction buffer (50 mM HEPES pH 7.4, 100 mM NaCl, 0.1% bovine serum albumin, and 0.05% CHAPS). 10 µL of varying concentrations of His-ENL YEATS (0-300 nM) and 10 µL of […]
For orientation: BLI is a label-free optical method that tracks binding on a fibre tip over time.

Test [2] concerns the target T2, NanoLuc-ENL YEATS expressed in HEK293T cells (Homo sapiens, UniProt Q03111).
T2 construct: The complementary DNA encoding ENL YEATS (aa 1-148) was cloned into pCDH-EF1-Nluc; expressed in transfected cells
T2 sequence (Q03111 1-148): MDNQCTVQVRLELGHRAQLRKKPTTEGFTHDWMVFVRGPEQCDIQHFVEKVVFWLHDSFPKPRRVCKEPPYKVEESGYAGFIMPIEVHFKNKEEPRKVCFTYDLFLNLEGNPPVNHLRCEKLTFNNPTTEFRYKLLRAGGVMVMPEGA
In words: ENL-NanoBRET cellular target engagement assay with tracer SR-0813T. The format is cell-based. From the text:
For peptides developed for intracellular targets, a common concern is their cellular permeability to engage the targets. For the ENL YEATS domain that is a nuclear protein, its inhibitors will also need to translocate to the nucleus to exert their inhibition activities. […] We attached FITC to tENL-S1o to afford FITC-tENL-S1o that could be fluorescently imaged. […] Although results from this pilot study were very encouraging, the conjugated FITC could have assisted the cellular penetration process. A more accurate assay was needed for the use of unmodified peptides. In light of this, we proceeded to use a NanoBRET assay to evaluate whether our developed peptides could permeate into cells and engage the ENL YEATS domain in the cellular melieu.[46] The NanoBRET assay is an emerging cutting-edge technique that is robust and sensitive in assessing not just cellular permeability of a developed ligand but also the ligand engagement with its protein target in the cellular environment. A significant advantage of the NanoBRET assay over the fluorophore conjugation and other approaches is allowing intact ligands to be used. […] There are three components required to gauge the peptide inhibitory potency for ENL expressed in cells through NanoBRET assays: (1) an ENL YEATS-NanoLuc luciferase fusion protein, (2) a NanoLuc luciferase substrate, and (3) a fluorescent tracer that binds specifically and reversibly to the reader channel of ENL YEATS. […] The cellular potency of peptides can be determined through the decrease in BRET as test peptides engage the ENL YEATS domain and displace the tracer. […]
Meanwhile, we established a stable cell line for NanoLuc-ENL YEATS expression. The binding of SR-0813T to […] was also validated using a fluorescence polarization assay (Figure S16).
Using the developed ENL-NanoBRET assay, we then characterized the cellular potency of our developed peptidyl inhibitors. […] The apparent intracellular affinity of tENL-S1f was further evaluated by NanoBRET at various tracer concentrations (Figure 5D). […]
Fluorescence microscopy study with FITC-6AHX-tENL-S1o: […]
Background: In BRET a luciferase serves as donor, and the signal depends on an acceptor being close.

Test [3] concerns the target T3, AF9 YEATS domain (human, UniProt P42568 1-138).
T3 chain: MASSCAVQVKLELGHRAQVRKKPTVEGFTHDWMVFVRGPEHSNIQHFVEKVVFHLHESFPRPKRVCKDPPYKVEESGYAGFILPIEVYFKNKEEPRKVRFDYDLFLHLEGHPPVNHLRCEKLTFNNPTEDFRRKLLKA

For test [4], the target named is T3, AF9 YEATS domain. Description: AlphaScreen or HTRF; competition: AF9 YEATS and its corresponding acylated histone peptide; test peptide varied; n = 3.
The target in test [5] is T4, 6xHis-tagged ENL YEATS domain (human, UniProt Q03111 1-148).
T4 chain: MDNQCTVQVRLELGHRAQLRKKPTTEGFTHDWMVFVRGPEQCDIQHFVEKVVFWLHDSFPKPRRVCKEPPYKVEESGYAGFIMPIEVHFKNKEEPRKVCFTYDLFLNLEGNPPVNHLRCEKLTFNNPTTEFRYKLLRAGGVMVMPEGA
In words: BLI; His-ENL immobilised on Ni-NTA biosensors, peptides in solution at different concentrations (set-up told for ENL YEATS; the other YEATS domains were analysed 'similarly').

Test [6] addresses T4, 6xHis-tagged ENL YEATS domain. Description: AlphaScreen or HTRF; competition: biotinylated H3K27cr peptide on streptavidin donor beads, His-ENL YEATS on nickel-chelating (Ni-NTA) acceptor beads; test peptide varied; n = 3. A general note: In Alpha technology, singlet oxygen from a donor bead excites a nearby acceptor bead.
Test [7] shares this target.
The target is the same in test [8]. In words: BLI.
Test [9] concerns the target T3, AF9 YEATS domain. Description: BLI.
Test [10] has as its target T3, AF9 YEATS domain. Description: BLI; His-ENL immobilised on Ni-NTA biosensors, peptides in solution at different concentrations (set-up told for ENL YEATS; the other YEATS domains were analysed 'similarly').

Where two headings read alike, the source gives them in different places. Where a SMILES comes first, the peptide text is derived from it. Where no end group is shown, it is not given here. The star is where a group is joined. 2Furoyl = O=C(c1ccco1)*; Butyryl = CCCC(=O)*

Broadly, the IC50 is the concentration that inhibits the measured activity by half. `CC(=O)N[C@H](C(=O)N[C@@H](Cc1ccc(O)cc1)C(=O)N[C@@H](CS)C(=O)N[C@@H](Cc1ccc(O)cc1)C(=O)N[C@@H](CCCCNC(=O)c1ccco1)C(N)=O)C(C)C` [tENL-S1f] (Ac-VYCYK(2Furoyl)-NH2): the “Selectivity (ENL:AF9) from BLI KD values” in test [1] is given as 12.0 fold. Besides, the IC50 in [2] (0.5 μM SR-0813T tracer, read-out: NanoBRET IC50) came out at 4100 ± 1100 nM; in [2] (1.0 μM SR-0813T tracer, read-out: NanoBRET IC50), 4200 ± 1100 nM; in [2] (2.5 μM SR-0813T tracer, read-out: NanoBRET IC50, displacement of SR-0813T from NanoLuc-ENL), 6400 ± 1600 nM.
The Kd is the free concentration of one partner at which half of the binding sites on the other are occupied at equilibrium, for simple one-to-one binding. Broadly, the kon is a measure of how fast the partners come together. The molecule YDVYCYK(Butyryl) [ENL-S1] had an IC50 with AF9 YEATS domain [3] of 250 nM. Also, the fold lower potency (IC50) toward AF9 YEATS than toward ENL YEATS with AF9 YEATS domain [4] stood at 4 fold. In test [5], this molecule came in with a Kd of 36.3 nM and a kon of 62300 M⁻¹ s⁻¹. This molecule also showed an IC50 in [6] of 63 nM.
With Ac-VYCYK(2Furoyl) [tENL-S1f], in test [7], the decrease in qPCR of the ENL target genes HOXA9, MEIS1, MYB and MYC in MOLM-13 cells (endogenous ENL) treated with tENL-S1f at 10 and 50 μM is 30%; the growth of MV4;11 cells (MLL-r leukemia line sensitive to ENL depletion; endogenous ENL) treated with tENL-S1f for 14 days turned out to be 50%. In addition, binding in [8] was put at a Kd of 307 nM. The same molecule returned a Kd in the test with AF9 YEATS domain [9] of 3670 nM. This molecule came in with a fold selectivity for ENL YEATS over AF9 with AF9 YEATS domain [10] of 12 fold.
